Article doi:10.1101/2023.11.26.568766 (bioRxiv, 2023)

Molecular target: the molecule itself
Experiment: crystal structure

B1: XccOpgD (D379N), OpgD from Xanthomonas campestris pv. campestris (enzyme)
chain: AKAVGLRRLGQPQPFDYAWLKGQARALAKAPYKSHKQVLPGPLESLNWDQYQSIRYRQDHALWADGNGKFQAKFFHLGLYFHTPVHIYDIVDGKAQQLAYDPAAFDYGRSGLGGKQLPKDLGFAGFRLNTRKDTDRDFSAFLGASYFRAVGKEGQYGQSARGLAIDTGTGGPEEFPDFIAYYLEQPADDSDTVVVYGLLDSPSVSGAYRFAITNGEVLVMDIDSALYPRKAIERLGIGPCTSMYQTGENDRRMDWDWRPEIHDTDGLAMWTGGGEWIWRPLCNPPHLRFNMFVDENPRGFGLLQRDRNFDHYQDDGVFYEKRPCLWVEPKSGWGKGSVQLVEIPTVDETFNNIVAFWNPQAKPQPGQELLMGYRLYWGAHPPASSPLAHCVATRTGLGGIVGQKRSHFSWRFAVDFAGGELAALAKDPKAKVEAVLQVSRGTTEIVSARPLHELKGYRAMFDLVPPDEGTQQIDIRLFLRANGKPLTETWLYQWTPPPASERKIY
**Q.** Does B1 bind?
**A.** binds
